The values below come from article doi:10.1101/375832, “A Ubiquitin-Binding Domain that Does Not Bind Ubiquitin” (bioRxiv, 2018).

What all share (settings): both partners purified
Experiment [1] addresses T1, FLAG-SMARCAD1, full-length, wild type, recombinant from E. coli (human, UniProt Q9H4L7 1-1026).
T1 construct: SMARCAD1, human, full-length; Cloned in pET28a-SUMO; source: E. coli BL-21 CodonPlus (DE3)-RIL, purified (HisTrap, Heparin, ProSwift SAX-1S)
T1 sequence (looked up): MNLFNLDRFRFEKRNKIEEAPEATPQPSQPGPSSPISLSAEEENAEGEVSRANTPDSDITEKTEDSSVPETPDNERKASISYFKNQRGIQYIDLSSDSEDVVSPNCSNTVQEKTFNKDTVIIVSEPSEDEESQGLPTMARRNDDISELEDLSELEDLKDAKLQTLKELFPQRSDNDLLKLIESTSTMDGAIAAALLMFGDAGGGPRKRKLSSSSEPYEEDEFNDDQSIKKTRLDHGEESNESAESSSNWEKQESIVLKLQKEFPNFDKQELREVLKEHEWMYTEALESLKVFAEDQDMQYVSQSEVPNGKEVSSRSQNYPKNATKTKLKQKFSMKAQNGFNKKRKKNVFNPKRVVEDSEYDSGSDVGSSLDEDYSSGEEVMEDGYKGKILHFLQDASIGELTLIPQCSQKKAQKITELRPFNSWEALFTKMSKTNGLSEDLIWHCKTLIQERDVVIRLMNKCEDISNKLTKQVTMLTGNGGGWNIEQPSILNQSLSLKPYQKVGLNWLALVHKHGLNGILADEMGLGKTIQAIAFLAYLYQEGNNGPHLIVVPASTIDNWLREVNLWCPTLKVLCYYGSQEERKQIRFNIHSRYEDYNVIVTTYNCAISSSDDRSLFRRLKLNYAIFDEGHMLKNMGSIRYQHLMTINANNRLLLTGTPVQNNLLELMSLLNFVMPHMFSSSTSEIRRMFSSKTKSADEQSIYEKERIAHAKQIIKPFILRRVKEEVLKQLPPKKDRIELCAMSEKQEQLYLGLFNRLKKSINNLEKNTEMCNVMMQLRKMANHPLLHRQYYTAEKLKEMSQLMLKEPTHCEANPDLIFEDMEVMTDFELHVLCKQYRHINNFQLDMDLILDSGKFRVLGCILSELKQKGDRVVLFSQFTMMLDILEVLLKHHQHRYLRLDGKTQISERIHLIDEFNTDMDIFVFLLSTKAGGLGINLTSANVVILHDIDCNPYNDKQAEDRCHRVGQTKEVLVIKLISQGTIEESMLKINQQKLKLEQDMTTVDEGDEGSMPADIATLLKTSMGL
Kind of experiment: co-IP; purified full-length SMARCAD1 and KAP1 from E. coli, 7μg of each in 280μL SK binding buffer, 200mM NaCl, 4°C; immunoprecipitated overnight with anti-FLAG M2 affinity gel.

Experiment [2] deals with T2, KAP1 RBCC (S33-K434), purified (human, UniProt Q13263 33-434).
T2 construct: KAP1 (TRIM28), human, residues S33-K434, RBCC domain; also called KAP1 S33-K434; Fragment 1; source: E. coli BL-21 CodonPlus (DE3)-RP, purified (Ni-NTA, Mono Q)
Kind of experiment: co-IP; purified SMARCAD1 fragments (CUE1,2, CUE1) and KAP1 RBCC, 9.6μg of each in a 240μL binding reaction, 1 hour at 4°C; immunoprecipitated with anti-FLAG M2 affinity gel for 3 hours at 4°C.

The target in experiment [3] is T3, KAP1 RBCC (S33-K434) E343A (human, UniProt Q13263 33-434, E343A).
T3 construct: KAP1 (TRIM28), human, RBCC fragment S33-K434; source: E. coli, purified; construct generated by GenScript
Described as above.

Experiment [4] concerns the target T4, KAP1 RBCC (S33-K434) I379A (human, UniProt Q13263 33-434, I379A).
T4 construct: KAP1 (TRIM28), human, RBCC fragment S33-K434; source: E. coli, purified; construct generated by GenScript
Described as above.

Experiment [5] deals with T5, KAP1 RBCC (S33-K434) M335A (human, UniProt Q13263 33-434, M335A).
T5 construct: KAP1 (TRIM28), human, RBCC fragment S33-K434; source: E. coli, purified; construct generated by GenScript
The experiment is described as above.

For experiment [6], the target named is T6, KAP1 RBCC (S33-K434) V380A (human, UniProt Q13263 33-434, V380A).
T6 construct: KAP1 (TRIM28), human, RBCC fragment S33-K434; source: E. coli, purified; construct generated by GenScript
The description is as above.

For experiment [7], the target named is T7, KAP1 RBCC (S33-K434) L376A (human, UniProt Q13263 33-434, L376A).
T7 construct: KAP1 (TRIM28), human, RBCC fragment S33-K434; source: E. coli, purified; construct generated by GenScript
Described as above.

T5 sequence (Q13263 33-434 M335A): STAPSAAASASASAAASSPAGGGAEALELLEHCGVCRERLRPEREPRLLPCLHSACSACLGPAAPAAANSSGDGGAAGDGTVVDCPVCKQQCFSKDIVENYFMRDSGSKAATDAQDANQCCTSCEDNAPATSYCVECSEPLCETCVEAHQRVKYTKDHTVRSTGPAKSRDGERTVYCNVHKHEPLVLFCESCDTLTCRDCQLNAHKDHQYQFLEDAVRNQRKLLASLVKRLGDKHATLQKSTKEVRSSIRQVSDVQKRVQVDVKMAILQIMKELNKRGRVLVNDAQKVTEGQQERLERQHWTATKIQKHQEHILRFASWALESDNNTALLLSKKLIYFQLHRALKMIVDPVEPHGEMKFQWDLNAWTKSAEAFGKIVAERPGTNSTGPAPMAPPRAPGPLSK
T7 sequence (Q13263 33-434 L376A): as the sequence (Q13263 33-434 M335A) above, with A303M, L344A counted along it
T3 sequence (Q13263 33-434 E343A): as the sequence (Q13263 33-434 M335A) above, with A303M, E311A counted along it
T6 sequence (Q13263 33-434 V380A): as the sequence (Q13263 33-434 M335A) above, with A303M, V348A counted along it
T4 sequence (Q13263 33-434 I379A): as the sequence (Q13263 33-434 M335A) above, with A303M, I347A counted along it

B1: KAP1, full-length, recombinant from E. coli (HA-KAP1) (natural protein, human, UniProt Q13263 1-835, looked up)
chain: MAASAAAASAAAASAASGSPGPGEGSAGGEKRSTAPSAAASASASAAASSPAGGGAEALELLEHCGVCRERLRPEREPRLLPCLHSACSACLGPAAPAAANSSGDGGAAGDGTVVDCPVCKQQCFSKDIVENYFMRDSGSKAATDAQDANQCCTSCEDNAPATSYCVECSEPLCETCVEAHQRVKYTKDHTVRSTGPAKSRDGERTVYCNVHKHEPLVLFCESCDTLTCRDCQLNAHKDHQYQFLEDAVRNQRKLLASLVKRLGDKHATLQKSTKEVRSSIRQVSDVQKRVQVDVKMAILQIMKELNKRGRVLVNDAQKVTEGQQERLERQHWTMTKIQKHQEHILRFASWALESDNNTALLLSKKLIYFQLHRALKMIVDPVEPHGEMKFQWDLNAWTKSAEAFGKIVAERPGTNSTGPAPMAPPRAPGPLSKQGSGSSQPMEVQEGYGFGSGDDPYSSAEPHVSGVKRSRSGEGEVSGLMRKVPRVSLERLDLDLTADSQPPVFKVFPGSTTEDYNLIVIERGAAAAATGQPGTAPAGTPGAPPLAGMAIVKEEETEAAIGAPPTATEGPETKPVLMALAEGPGAEGPRLASPSGSTSSGLEVVAPEGTSAPGGGPGTLDDSATICRVCQKPGDLVMCNQCEFCFHLDCHLPALQDVPGEEWSCSLCHVLPDLKEEDGSLSLDGADSTGVVAKLSPANQRKCERVLLALFCHEPCRPLHQLATDSTFSLDQPGGTLDLTLIRARLQEKLSPPYSSPQEFAQDVGRMFKQFNKLTEDKADVQSIIGLQRFFETRMNEAFGDTKFSAVLVEPPPMSLPGAGLSSQELSGGPGDGP
notes: KAP1 (TRIM28), human, full-length; also called TRIM28; TIF1β; source: E. coli BL-21 CodonPlus (DE3)-RP, purified (HisTrap, Heparin, Sephacryl S-400 gel filtration)
On to B1, for which the binding result in experiment [1] is listed as “binds”.

B2: FLAG-tagged SMARCAD1 CUE1,2 fragment (S95-N347), wild type (domain or fragment, human, UniProt Q9H4L7 95-347, looked up)
chain: SSDSEDVVSPNCSNTVQEKTFNKDTVIIVSEPSEDEESQGLPTMARRNDDISELEDLSELEDLKDAKLQTLKELFPQRSDNDLLKLIESTSTMDGAIAAALLMFGDAGGGPRKRKLSSSSEPYEEDEFNDDQSIKKTRLDHGEESNESAESSSNWEKQESIVLKLQKEFPNFDKQELREVLKEHEWMYTEALESLKVFAEDQDMQYVSQSEVPNGKEVSSRSQNYPKNATKTKLKQKFSMKAQNGFNKKRKKN
notes: SMARCAD1, human, residues S95-N347 encompassing both CUE domains; source: E. coli BL-21 CodonPlus (DE3)-RIL, purified (Ni-NTA, Mono Q if required)
With B2, the binding result in experiment [2], in experiment [3], in experiment [4], in experiment [5], in experiment [6] and in experiment [7] was “binds” throughout.

B3: FLAG-tagged SMARCAD1 CUE1,2 fragment L195A (domain or fragment, human, UniProt Q9H4L7 95-347, looked up)
chain: SSDSEDVVSPNCSNTVQEKTFNKDTVIIVSEPSEDEESQGLPTMARRNDDISELEDLSELEDLKDAKLQTLKELFPQRSDNDLLKLIESTSTMDGAIAAAALMFGDAGGGPRKRKLSSSSEPYEEDEFNDDQSIKKTRLDHGEESNESAESSSNWEKQESIVLKLQKEFPNFDKQELREVLKEHEWMYTEALESLKVFAEDQDMQYVSQSEVPNGKEVSSRSQNYPKNATKTKLKQKFSMKAQNGFNKKRKKN
notes: SMARCAD1, human, CUE1,2 fragment S95-N347; source: E. coli, purified; construct generated by GenScript
With B3, the binding result in experiment [2] is listed as “binds”.

B4: FLAG-tagged SMARCAD1 CUE1,2 fragment L196A (domain or fragment, human, UniProt Q9H4L7 95-347, looked up)
chain: SSDSEDVVSPNCSNTVQEKTFNKDTVIIVSEPSEDEESQGLPTMARRNDDISELEDLSELEDLKDAKLQTLKELFPQRSDNDLLKLIESTSTMDGAIAAALAMFGDAGGGPRKRKLSSSSEPYEEDEFNDDQSIKKTRLDHGEESNESAESSSNWEKQESIVLKLQKEFPNFDKQELREVLKEHEWMYTEALESLKVFAEDQDMQYVSQSEVPNGKEVSSRSQNYPKNATKTKLKQKFSMKAQNGFNKKRKKN
notes: as for B3
As for B4, the binding result in experiment [2] is listed as “binds”.

B5: FLAG-tagged SMARCAD1 CUE1,2 fragment Q171A (domain or fragment, human, UniProt Q9H4L7 95-347, looked up)
chain: SSDSEDVVSPNCSNTVQEKTFNKDTVIIVSEPSEDEESQGLPTMARRNDDISELEDLSELEDLKDAKLQTLKELFPARSDNDLLKLIESTSTMDGAIAAALLMFGDAGGGPRKRKLSSSSEPYEEDEFNDDQSIKKTRLDHGEESNESAESSSNWEKQESIVLKLQKEFPNFDKQELREVLKEHEWMYTEALESLKVFAEDQDMQYVSQSEVPNGKEVSSRSQNYPKNATKTKLKQKFSMKAQNGFNKKRKKN
notes: as for B3
In the case of B5, in experiment [2], the binding result is “binds”.

B6: FLAG-tagged SMARCAD1 CUE1,2 fragment P170A (domain or fragment, human, UniProt Q9H4L7 95-347, looked up)
chain: SSDSEDVVSPNCSNTVQEKTFNKDTVIIVSEPSEDEESQGLPTMARRNDDISELEDLSELEDLKDAKLQTLKELFAQRSDNDLLKLIESTSTMDGAIAAALLMFGDAGGGPRKRKLSSSSEPYEEDEFNDDQSIKKTRLDHGEESNESAESSSNWEKQESIVLKLQKEFPNFDKQELREVLKEHEWMYTEALESLKVFAEDQDMQYVSQSEVPNGKEVSSRSQNYPKNATKTKLKQKFSMKAQNGFNKKRKKN
notes: as for B3
B6: in experiment [2], the binding result is on record as “binds”.

B7: FLAG-tagged SMARCAD1 CUE1,2 fragment D188A (domain or fragment, human, UniProt Q9H4L7 95-347, looked up)
chain: SSDSEDVVSPNCSNTVQEKTFNKDTVIIVSEPSEDEESQGLPTMARRNDDISELEDLSELEDLKDAKLQTLKELFPQRSDNDLLKLIESTSTMAGAIAAALLMFGDAGGGPRKRKLSSSSEPYEEDEFNDDQSIKKTRLDHGEESNESAESSSNWEKQESIVLKLQKEFPNFDKQELREVLKEHEWMYTEALESLKVFAEDQDMQYVSQSEVPNGKEVSSRSQNYPKNATKTKLKQKFSMKAQNGFNKKRKKN
notes: as for B3
In the case of B7, the binding result in experiment [2] was “binds”.

B8: FLAG-tagged SMARCAD1 CUE1,2 fragment E167A (domain or fragment, human, UniProt Q9H4L7 95-347, looked up)
chain: SSDSEDVVSPNCSNTVQEKTFNKDTVIIVSEPSEDEESQGLPTMARRNDDISELEDLSELEDLKDAKLQTLKALFPQRSDNDLLKLIESTSTMDGAIAAALLMFGDAGGGPRKRKLSSSSEPYEEDEFNDDQSIKKTRLDHGEESNESAESSSNWEKQESIVLKLQKEFPNFDKQELREVLKEHEWMYTEALESLKVFAEDQDMQYVSQSEVPNGKEVSSRSQNYPKNATKTKLKQKFSMKAQNGFNKKRKKN
notes: as for B3
As for B8, the binding result in experiment [2] is given as “binds”.

B9: SMARCAD1 CUE1 fragment (S95-E237), wild type (domain or fragment, human, UniProt Q9H4L7 95-237, looked up)
chain: SSDSEDVVSPNCSNTVQEKTFNKDTVIIVSEPSEDEESQGLPTMARRNDDISELEDLSELEDLKDAKLQTLKELFPQRSDNDLLKLIESTSTMDGAIAAALLMFGDAGGGPRKRKLSSSSEPYEEDEFNDDQSIKKTRLDHGE
notes: SMARCAD1, human, residues S95-E237 spanning only the first CUE domain; also called wild type CUE1 fragment; source: E. coli BL-21 CodonPlus (DE3)-RIL, purified (Ni-NTA, Mono Q if required)
Consider B9, for which the binding result in experiment [2] was “binds”.

B10: FLAG-tagged SMARCAD1 CUE1,2 fragment Δ200-230 (domain or fragment, human, UniProt Q9H4L7 95-347, looked up)
chain: SSDSEDVVSPNCSNTVQEKTFNKDTVIIVSEPSEDEESQGLPTMARRNDDISELEDLSELEDLKDAKLQTLKELFPQRSDNDLLKLIESTSTMDGAIAAALLMFGTRLDHGEESNESAESSSNWEKQESIVLKLQKEFPNFDKQELREVLKEHEWMYTEALESLKVFAEDQDMQYVSQSEVPNGKEVSSRSQNYPKNATKTKLKQKFSMKAQNGFNKKRKKN
notes: SMARCAD1, human, CUE1,2 fragment S95-N347 with residues 200-230 deleted; source: E. coli, purified; construct generated by GenScript
Consider B10, for which the binding result in experiment [2] was “binds”.
